This is an account of results in patent US20250114463A1, “LIVER-TARGETED DRUG AND USE THEREOF” (HANMI PHARM. CO., LTD., priority 2021, published 2025).

Bridges are numbered along the chain shown (N, C = ends). Where no end group is shown, it is not given here. [ ]: non-standard residue; d: D form. The star is where a group is joined. Acetyl(2-(4-imidazolyl)) = O=C(Cc1c[nH]cn1)*; Aib = CC(C)(N)C(=O)O

What all share (assay): cell-based or functional assay
The target in one assay is human GLP-1 receptor (human, UniProt P43220 24-463).
The target of a further assay is human GCG receptor (human, UniProt P47871 26-477).
Sequence of human GCG receptor (P47871 26-477): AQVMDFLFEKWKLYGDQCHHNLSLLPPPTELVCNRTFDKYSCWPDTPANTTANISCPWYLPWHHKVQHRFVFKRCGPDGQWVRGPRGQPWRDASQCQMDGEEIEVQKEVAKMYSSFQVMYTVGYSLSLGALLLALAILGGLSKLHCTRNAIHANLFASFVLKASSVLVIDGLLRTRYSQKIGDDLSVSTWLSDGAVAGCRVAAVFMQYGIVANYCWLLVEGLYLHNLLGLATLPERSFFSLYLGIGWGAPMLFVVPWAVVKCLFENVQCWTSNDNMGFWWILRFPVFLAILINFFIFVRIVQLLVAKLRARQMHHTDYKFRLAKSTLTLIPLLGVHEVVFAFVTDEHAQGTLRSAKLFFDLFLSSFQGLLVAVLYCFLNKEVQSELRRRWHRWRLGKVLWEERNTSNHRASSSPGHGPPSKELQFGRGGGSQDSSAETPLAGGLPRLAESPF
A further assay addresses T1, human GIP receptor (human, UniProt P48546 22-466).
T1 sequence (looked up): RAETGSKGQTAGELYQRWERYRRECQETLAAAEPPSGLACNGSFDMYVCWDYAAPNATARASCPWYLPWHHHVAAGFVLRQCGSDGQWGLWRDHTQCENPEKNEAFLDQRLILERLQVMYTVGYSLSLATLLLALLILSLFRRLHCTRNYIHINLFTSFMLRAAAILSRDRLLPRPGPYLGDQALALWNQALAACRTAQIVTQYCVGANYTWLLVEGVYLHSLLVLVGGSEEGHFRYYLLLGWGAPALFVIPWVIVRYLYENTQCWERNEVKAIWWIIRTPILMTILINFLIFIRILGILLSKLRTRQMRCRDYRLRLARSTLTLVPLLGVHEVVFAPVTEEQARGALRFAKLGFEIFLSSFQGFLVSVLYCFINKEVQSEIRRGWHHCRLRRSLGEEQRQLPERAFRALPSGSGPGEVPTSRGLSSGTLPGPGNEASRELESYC

B1: triple agonist of SEQ ID NO: 6 (peptide)
peptide: HXQGTFTSDVSSYLDGQAAKEFVAWLLKGC
HELM: PEPTIDE1{H.[Aib].Q.G.T.F.T.S.D.V.S.S.Y.L.D.G.Q.A.A.K.E.F.V.A.W.L.L.K.G.C.[am]}$$$$V2.0; N-terminus assumed
SMILES: CC(C)C[C@H](NC(=O)[C@H](Cc1c[nH]c2ccccc12)NC(=O)[C@H](C)NC(=O)[C@@H](NC(=O)[C@H](Cc1ccccc1)NC(=O)[C@H](CCC(=O)O)NC(=O)[C@H](CCCCN)NC(=O)[C@H](C)NC(=O)[C@H](C)NC(=O)[C@H](CCC(N)=O)NC(=O)CNC(=O)[C@H](CC(=O)O)NC(=O)[C@H](CC(C)C)NC(=O)[C@H](Cc1ccc(O)cc1)NC(=O)[C@H](CO)NC(=O)[C@H](CO)NC(=O)[C@@H](NC(=O)[C@H](CC(=O)O)NC(=O)[C@H](CO)NC(=O)[C@@H](NC(=O)[C@H](Cc1ccccc1)NC(=O)[C@@H](NC(=O)CNC(=O)[C@H](CCC(N)=O)NC(=O)C(C)(C)NC(=O)[C@@H](N)Cc1c[nH]cn1)[C@@H](C)O)[C@@H](C)O)C(C)C)C(C)C)C(=O)N[C@@H](CC(C)C)C(=O)N[C@@H](CCCCN)C(=O)NCC(=O)N[C@@H](CS)C(N)=O
For B1, in the assay with human GLP-1 receptor, the “in vitro Activity Compared to Native Peptide (%), vs GLP-1” value stood at 17%. Besides, in the assay with human GCG receptor, the “in vitro Activity Compared to Native Peptide (%), vs Glucagon” value was less than 0.1%. Further, the “in vitro Activity Compared to Native Peptide (%), vs GIP” value with human GIP receptor is less than 0.1%.

B2: triple agonist of SEQ ID NO: 41 (peptide)
peptide: HXQGTFTSDKSKYLDECAAQDFVQWLLDGGPSSGAPPPS
HELM: PEPTIDE1{H.[Aib].Q.G.T.F.T.S.D.K.S.K.Y.L.D.E.C.A.A.Q.D.F.V.Q.W.L.L.D.G.G.P.S.S.G.A.P.P.P.S.[am]}$$$$V2.0; N-terminus assumed
SMILES: CC(C)C[C@H](NC(=O)[C@H](CC(C)C)NC(=O)[C@H](Cc1c[nH]c2ccccc12)NC(=O)[C@H](CCC(N)=O)NC(=O)[C@@H](NC(=O)[C@H](Cc1ccccc1)NC(=O)[C@H](CC(=O)O)NC(=O)[C@H](CCC(N)=O)NC(=O)[C@H](C)NC(=O)[C@H](C)NC(=O)[C@H](CS)NC(=O)[C@H](CCC(=O)O)NC(=O)[C@H](CC(=O)O)NC(=O)[C@H](CC(C)C)NC(=O)[C@H](Cc1ccc(O)cc1)NC(=O)[C@H](CCCCN)NC(=O)[C@H](CO)NC(=O)[C@H](CCCCN)NC(=O)[C@H](CC(=O)O)NC(=O)[C@H](CO)NC(=O)[C@@H](NC(=O)[C@H](Cc1ccccc1)NC(=O)[C@@H](NC(=O)CNC(=O)[C@H](CCC(N)=O)NC(=O)C(C)(C)NC(=O)[C@@H](N)Cc1c[nH]cn1)[C@@H](C)O)[C@@H](C)O)C(C)C)C(=O)N[C@@H](CC(=O)O)C(=O)NCC(=O)NCC(=O)N1CCC[C@H]1C(=O)N[C@@H](CO)C(=O)N[C@@H](CO)C(=O)NCC(=O)N[C@@H](C)C(=O)N1CCC[C@H]1C(=O)N1CCC[C@H]1C(=O)N1CCC[C@H]1C(=O)N[C@@H](CO)C(N)=O
B2: the “in vitro Activity Compared to Native Peptide (%), vs GLP-1” value with human GLP-1 receptor came to 34.3%. In addition, the “in vitro Activity Compared to Native Peptide (%), vs Glucagon” value with human GCG receptor was less than 0.1%. Besides, the “in vitro Activity Compared to Native Peptide (%), vs GIP” value with human GIP receptor is less than 0.1%.

Turning to H[Aib]QGTFTSDYSIAMDEIHQKDFVNWLLAQC (bridge 16-20; not fully specified (C-terminus)) [triple agonist of SEQ ID NO: 55], the “in vitro Activity Compared to Native Peptide (%), vs GLP-1” value in the assay with human GLP-1 receptor was determined as 27.1%. For the same molecule, the “in vitro Activity Compared to Native Peptide (%), vs Glucagon” value in the assay with human GCG receptor was found to be 0.7%. In addition, the “in vitro Activity Compared to Native Peptide (%), vs GIP” value in the assay with human GIP receptor is 2.4%.

H[Aib]EGTFTSDYSIAMDEIHQKDFVNWLLAQC (bridge 16-20; not fully specified (C-terminus)) [triple agonist of SEQ ID NO: 53]: the “in vitro Activity Compared to Native Peptide (%), vs GLP-1” value with human GLP-1 receptor is 161%. In addition, the “in vitro Activity Compared to Native Peptide (%), vs Glucagon” value in the assay with human GCG receptor came to 8.4%. The “in vitro Activity Compared to Native Peptide (%), vs GIP” value with human GIP receptor was 1.3%.

As for Y[Aib]QGTFTSDYSKYLDEKRAKEFVQWLLDHHCSSGQPPPS-NH2 (bridge 16-20) [triple agonist of SEQ ID NO: 43], the “in vitro Activity Compared to Native Peptide (%), vs GLP-1” value with human GLP-1 receptor was determined as 12.6%. Besides, in the assay with human GCG receptor, the “in vitro Activity Compared to Native Peptide (%), vs Glucagon” value was determined as 88.4%. For the same molecule, the “in vitro Activity Compared to Native Peptide (%), vs GIP” value with human GIP receptor turned out to be 3.7%.

For the molecule H[Aib]QGTFTSDYSKYLDEKRQKEFVQWLLDTC (bridge 16-20; not fully specified (C-terminus)) [triple agonist of SEQ ID NO: 52], the “in vitro Activity Compared to Native Peptide (%), vs GLP-1” value in the assay with human GLP-1 receptor stood at 44.1%. Besides, in the assay with human GCG receptor, the “in vitro Activity Compared to Native Peptide (%), vs Glucagon” value is 7.5%. Besides, in the assay with human GIP receptor, the “in vitro Activity Compared to Native Peptide (%), vs GIP” value is 0.3%.

As to Y[Aib]QGTFTSDYSKYLDEKRAKEFVQWLLDHHPSSGQPPPSC-NH2 (bridge 16-20) [triple agonist of SEQ ID NO: 42], the “in vitro Activity Compared to Native Peptide (%), vs GLP-1” value in the assay with human GLP-1 receptor amounted to 33.9%. For the same molecule, the “in vitro Activity Compared to Native Peptide (%), vs Glucagon” value with human GCG receptor came out at 206%. In addition, in the assay with human GIP receptor, the “in vitro Activity Compared to Native Peptide (%), vs GIP” value came out at 7.8%.

For H[Aib]QGTFTSDYSIAMDEIHQKDFVNWLLNTC (bridge 16-20; not fully specified (C-terminus)) [triple agonist of SEQ ID NO: 57], the “in vitro Activity Compared to Native Peptide (%), vs GLP-1” value with human GLP-1 receptor came to 11.7%. In addition, the “in vitro Activity Compared to Native Peptide (%), vs Glucagon” value in the assay with human GCG receptor is less than 0.1%. Also, the “in vitro Activity Compared to Native Peptide (%), vs GIP” value with human GIP receptor was 0.3%.

Regarding HGQGTFTSDCSKQLDGQAAQEFVAWLLAGGPSSGAPPPS (not fully specified (C-terminus)) [triple agonist of SEQ ID NO: 44], the “in vitro Activity Compared to Native Peptide (%), vs GLP-1” value with human GLP-1 receptor is 1.3%. The “in vitro Activity Compared to Native Peptide (%), vs Glucagon” value with human GCG receptor was less than 0.1%. In addition, in the assay with human GIP receptor, the “in vitro Activity Compared to Native Peptide (%), vs GIP” value was less than 0.1%.

On to HGQGTFTSDCSKYLDEQHAQEFVAWLLAGGPSSGAPPPS (not fully specified (C-terminus)) [triple agonist of SEQ ID NO: 46], for which the “in vitro Activity Compared to Native Peptide (%), vs GLP-1” value in the assay with human GLP-1 receptor is 1.4%. Moreover, the “in vitro Activity Compared to Native Peptide (%), vs Glucagon” value with human GCG receptor is less than 0.1%. Also, the “in vitro Activity Compared to Native Peptide (%), vs GIP” value with human GIP receptor was less than 0.1%.

For the molecule HGQGTFTSDCSKYMDGQAAQDFVAWLLAGGPSSGAPPPS (not fully specified (C-terminus)) [triple agonist of SEQ ID NO: 45], the “in vitro Activity Compared to Native Peptide (%), vs GLP-1” value in the assay with human GLP-1 receptor worked out at 6.6%. Further, the “in vitro Activity Compared to Native Peptide (%), vs Glucagon” value with human GCG receptor was less than 0.1%. Also, in the assay with human GIP receptor, the “in vitro Activity Compared to Native Peptide (%), vs GIP” value is less than 0.1%.

As for HGQGTFTSDCSKYLDGQRAQEFVAWLLAGGPSSGAPPPS (not fully specified (C-terminus)) [triple agonist of SEQ ID NO: 47], in the assay with human GLP-1 receptor, the “in vitro Activity Compared to Native Peptide (%), vs GLP-1” value stood at 2.4%. Also, in the assay with human GCG receptor, the “in vitro Activity Compared to Native Peptide (%), vs Glucagon” value was less than 0.1%. The “in vitro Activity Compared to Native Peptide (%), vs GIP” value in the assay with human GIP receptor was less than 0.1%.

Turning to HGQGTFTSDCSKYLDGQRAQDFVNWLLAGGPSSGAPPPS (not fully specified (C-terminus)) [triple agonist of SEQ ID NO: 48], in the assay with human GLP-1 receptor, the “in vitro Activity Compared to Native Peptide (%), vs GLP-1” value turned out to be 1.5%. Also, in the assay with human GCG receptor, the “in vitro Activity Compared to Native Peptide (%), vs Glucagon” value is less than 0.1%. Also, the “in vitro Activity Compared to Native Peptide (%), vs GIP” value in the assay with human GIP receptor is less than 0.1%.

Consider H[Aib]QGTFTSDYSKYLDEKRQKEFVNWLLAQC (bridge 16-20; not fully specified (C-terminus)) [triple agonist of SEQ ID NO: 56], for which the “in vitro Activity Compared to Native Peptide (%), vs GLP-1” value in the assay with human GLP-1 receptor is 57.9%. Also, the “in vitro Activity Compared to Native Peptide (%), vs Glucagon” value in the assay with human GCG receptor turned out to be 4.9%. For the same molecule, the “in vitro Activity Compared to Native Peptide (%), vs GIP” value in the assay with human GIP receptor came to 0.8%.

With H[Aib]QGTFTSDYSKYLDEKRQKEFVQWLLNTC (bridge 16-20; not fully specified (C-terminus)) [triple agonist of SEQ ID NO: 51], in the assay with human GLP-1 receptor, the “in vitro Activity Compared to Native Peptide (%), vs GLP-1” value turned out to be 14.4%. In addition, the “in vitro Activity Compared to Native Peptide (%), vs Glucagon” value in the assay with human GCG receptor amounted to 2%. In the assay with human GIP receptor, the “in vitro Activity Compared to Native Peptide (%), vs GIP” value stood at 0.1%.

For the molecule [Acetyl(2-(4-imidazolyl))][Aib]QGTFTSDYSICMDEIHQKDFVNWLLNTK (bridge 16-20; not fully specified (C-terminus)) [triple agonist of SEQ ID NO: 49], the “in vitro Activity Compared to Native Peptide (%), vs GLP-1” value with human GLP-1 receptor came out at 29.8%. Further, the “in vitro Activity Compared to Native Peptide (%), vs Glucagon” value in the assay with human GCG receptor is less than 0.1%. Besides, the “in vitro Activity Compared to Native Peptide (%), vs GIP” value with human GIP receptor was determined as 3.3%.

In the case of H[Aib]EGTFTSDYSIAMDEIHQKDFVDWLLAEC (bridge 16-20; not fully specified (C-terminus)) [triple agonist of SEQ ID NO: 54], the “in vitro Activity Compared to Native Peptide (%), vs GLP-1” value with human GLP-1 receptor was determined as 30.6%. Besides, the “in vitro Activity Compared to Native Peptide (%), vs Glucagon” value in the assay with human GCG receptor came out at 1.4%. Also, the “in vitro Activity Compared to Native Peptide (%), vs GIP” value with human GIP receptor is 0.1%.

Take H[Aib]QGTFTSDYSKYLDEKRAKEFVQWLLDHHPSSGQPPPSC-NH2 (bridge 16-20) [triple agonist of SEQ ID NO: 50]: in the assay with human GLP-1 receptor, the “in vitro Activity Compared to Native Peptide (%), vs GLP-1” value is 67.4%. For the same molecule, in the assay with human GCG receptor, the “in vitro Activity Compared to Native Peptide (%), vs Glucagon” value is 50.5%. Also, the “in vitro Activity Compared to Native Peptide (%), vs GIP” value with human GIP receptor stood at 2.7%.

As for H[Aib]QGTFTSDVSSYLLGQQQKEFIAWLVKGGGPSSGAPPPSC-NH2 [triple agonist of SEQ ID NO: 5], the “in vitro Activity Compared to Native Peptide (%), vs GLP-1” value with human GLP-1 receptor amounted to 42.1%. In the assay with human GCG receptor, the “in vitro Activity Compared to Native Peptide (%), vs Glucagon” value is less than 0.1%. Also, the “in vitro Activity Compared to Native Peptide (%), vs GIP” value with human GIP receptor is less than 0.1%.
